In US11771766B2, “Drug delivery system containing phospholipid and cholesterol” (Taiwan Liposome Co., Ltd, priority 2009, dated 2023):

Key:
[1] = Gel filtration (Sepharose 4B) of drug/delivery vehicle mixtures: percentage of non-associated drug; type: physicochemical; conditions: mixed with DOPC/DOPG/cholesterol vehicle (weight ratio 8.8/1/1.6), 50 mM phosphate buffer pH 6.2
Method: DOPC, DOPG, and cholesterol at a weight ratio of 8.8/1/1.6 were dissolved in chloroform, which was then evaporated under vacuum using a rotary evaporator. The dried mixture of the phospholipids and cholesterol thus produced was suspended in deionized water to form an aqueous suspension. The suspension is then homogenized via sonication using a cup horn sonicator (Misonix Sonicator 3000), sterilized by filtration, filled aseptically in a vial, and lyophilized to form a phospholipid-cholesterol-containing delivery vehicle. The phospholipid concentration in the vehicle was determined by a conventional phosphorus assay to ensure that the vehicle contained an appropriate total amount of the phospholipids.
The mixtures thus formed were diluted 18-100-fold in the same phosphate buffer and an aliquot of each mixture ([…]) was subjected to gel-filtration to determine the percentage of the therapeutic agent that was in non-associated form. Briefly, an aliquot of a mixture was loaded onto a Sepharose 4B column (diameter: 1.8 mm; length: 315 mm). The components in the mixture were then eluted by 50 mM phosphate buffer (pH 6.2). Fractions containing the therapeutic agent in different form, i.e., non-associated form or associated with the phospholipids, were collected, their absorbance being measured at 215 nm and 254 nm. The amount of the therapeutic agent in each fraction was determined based on the values of OD215 and OD254.

[2] = Vitreous Avastin concentration after intravitreal injection, by ELISA (Examples 2-5); type: in vivo, New Zealand White rabbits; conditions: Avastin dose 1.25 mg per eye
Method: The effect of the delivery vehicles mentioned above in prolonging the lifetime of Avastin in eyes was examined following the method described in Bakri et al., Ophthalmology, 2007, 114:5, 855-859. Briefly, New Zealand White rabbits were sedated by intramuscular injection of a mixture containing Zoletil (15 mg/ml) and Rompun (7 mg/ml). Both eyes of each rabbit were injected intravitreally with 50 μl of Avastin (25 mg/ml) or one of the aqueous suspensions mentioned above (at an Avastin dose of 1.25 mg per eye) using a 30-gauge needle. Rabbits were sacrificed at 7 days or 21 days after injection and their eyes were promptly enucleated. The vitreous humor was isolated from each eye together with retina and Avastin concentration was determined by ELISA as follows.
A F96 MaxiSorp™ NUNC-IMMUNO plate was coated with VEGF (10 μg/ml in PBS, pH 7.4; 100 μl/well) at 4° C. overnight. The VEGF-coated plate was washed with PBS and then blocked with a blocking buffer (5% skim milk in PBS) at room temperature for 1 hour. […] The absorbance at 450 nm (OD450) of each well was determined by an ELISA reader. Various pre-determined Avastin concentrations (3.125-25 ng/ml) were used to establish a standard Avastin concentration/OD450 curve. The Avastin concentration in each sample was determined based on its OD450 value in view of the standard curve. […]

[3] = Pharmacokinetic properties of vitreous Avastin after intravitreal injection (Example 6); type: in vivo, Rabbits
Method: Rabbits were injected intravitreally with either Avastin alone (control rabbits) or Avastin mixed with a delivery vehicle containing DOPC/Cholesterol/DOPG at a ratio 67.5/25/7.5 (test rabbits). Vitreous Avastin concentrations of the control rabbits were examined by ELISA at days 7, 21, and 28 post injection and those of the test rabbits were examined at days 7, 21, 28, 35, 41, and 49 post injection.
In a similar study, the vitreous Avastin concentrations were monitored 7, 28, 49, 70, 91 and 112 days post intravitreal injection.

HFRRHLC [HFRRHLC (SEQ ID NO: 1) peptide]
Percentage of Non-Associated Drug (% ± S.D.) [1]: 71.9 ± 0.2%

N[C@@H](Cc1c[nH]c2ccccc12)C(=O)O [Tryptophan, tryptophan]
Percentage of Non-Associated Drug (% ± S.D.) [1]: 86.1 ± 0.8%

N[C@@H](Cc1ccc(O)cc1)C(=O)O [Tyrosine, tyrosine]
Percentage of Non-Associated Drug (% ± S.D.) [1]: 80.3 ± 0.1%

Avastin: an antibody specific to vascular endothelial growth factor
Avastin Concentration ([2]; vitreous humor with retina, seven days after intravitreal injection): 247 ± 27 µg/mL | Avastin Concentration ([2]; vitreous, 21 days after intravitreal injection): 37 ± 7 µg/mL | vitreous Avastin concentration ([3]; 28 days after intravitreal injection): 13 µg/mL | t1/2 (half-life of intravitreal Avastin) ([3]; control rabbits, vitreous): 93.6 h | vitreous concentration of Avastin over time (in words, FIG. 1) ([3]; days 7 to 49 after intravitreal injection): decreased much rapidly over time | AUC(7-∞) ([3]; vitreous, from the 7th day to infinity): 3294 µg·days/mL | AUC(7-112) ([3]; vitreous, from the 7th day to the 112th day): 3294 µg·days/mL | AUC(112-∞) ([3]; vitreous, from the 112th day to infinity): 0 µg·days/mL | Percentage of Non-Associated Drug (% ± S.D.) [1]: 62.1 ± 0.9%

bovine serum albumin
Percentage of Non-Associated Drug (% ± S.D.) [1]: 87.2 ± 0.4%

HWRGWVC [HWRGWVC (SEQ ID NO: 2) peptide]
Percentage of Non-Associated Drug (% ± S.D.) [1]: 52.4 ± 0.2%

C[C@@H]1C[C@H]2[C@@H]3CCC4=CC(=O)C=C[C@]4(C)[C@@]3(F)[C@@H](O)C[C@]2(C)[C@@]1(O)C(=O)COP(=O)(O)O [Dexamethasone sodium phosphate, dexamethasone sodium phosphate]
Percentage of Non-Associated Drug (% ± S.D.) [1]: 68.5 ± 0.5%
